The values below are quoted from earlier work in paper PMC5419078.

Read-outs that look alike come from different tables or passages of the source.

For data set [1], the target named is infliximab.
For data set [2], the target named is etanercept ECD (Homo sapiens) (UniProt P20333).
For data set [3] the target is unchanged. The data set can be described thus: SPR. (In general: SPR reads the build-up and loss of mass on a sensor chip optically.)
The target of data set [4] is infliximab. The data set is described as follows: SPR.

TNF, sequence (P01375 77-233): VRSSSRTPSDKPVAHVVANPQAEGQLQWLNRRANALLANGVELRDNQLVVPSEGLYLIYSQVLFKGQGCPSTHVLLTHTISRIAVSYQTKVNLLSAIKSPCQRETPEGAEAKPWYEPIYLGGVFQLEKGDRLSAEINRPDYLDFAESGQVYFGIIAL
etanercept ECD (Homo sapiens), sequence (P20333 23-257): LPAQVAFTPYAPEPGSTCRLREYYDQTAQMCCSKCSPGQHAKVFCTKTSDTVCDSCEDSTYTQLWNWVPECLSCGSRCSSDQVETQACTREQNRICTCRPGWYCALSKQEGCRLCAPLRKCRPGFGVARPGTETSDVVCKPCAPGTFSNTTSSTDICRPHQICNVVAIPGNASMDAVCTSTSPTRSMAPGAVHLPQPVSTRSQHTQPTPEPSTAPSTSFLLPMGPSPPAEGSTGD
infliximab, sequence (main, as listed by the source, chain 1 of 2, other chains not shown): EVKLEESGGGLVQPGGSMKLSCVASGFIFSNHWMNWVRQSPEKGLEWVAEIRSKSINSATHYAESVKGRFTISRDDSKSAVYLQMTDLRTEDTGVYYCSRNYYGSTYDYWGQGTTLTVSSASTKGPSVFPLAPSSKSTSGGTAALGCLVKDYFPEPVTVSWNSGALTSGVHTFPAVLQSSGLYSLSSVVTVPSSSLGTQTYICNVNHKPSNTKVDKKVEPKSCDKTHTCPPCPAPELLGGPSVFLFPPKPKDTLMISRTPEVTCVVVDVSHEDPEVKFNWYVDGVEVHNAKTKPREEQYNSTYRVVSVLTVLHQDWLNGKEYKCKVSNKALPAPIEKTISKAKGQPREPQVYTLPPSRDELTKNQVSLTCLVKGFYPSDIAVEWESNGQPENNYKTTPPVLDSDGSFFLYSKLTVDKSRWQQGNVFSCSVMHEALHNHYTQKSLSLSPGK

On to TNF (from UniProt P01375), for which the dissociation constant (Kd) was 0.0886 nM with infliximab [1], 0.00566 nM in data set [2], 0.0118 nM in data set [3] and 0.0273 nM with infliximab [4].

What is called Kd is the equilibrium constant for the complex coming apart.
